Data taken from patent US20240325529A1, “MEDICAMENT FOR TREATMENT AND/OR PREVENTION OF CANCER” (TORAY INDUSTRIES, INC., priority 2021, published 2024).
Numbering of substitutions follows the chain as printed.

T1: CAPRIN-1 on cell membrane surfaces of human cancer cells (Homo sapiens, UniProt Q14444)
T1 construct: endogenous in cells; host or cells: human cancer cell lines (BT-474, HT-29, QG56, H1650, NCI-N87, HEC-1-A, 22Rv1, Panc10.5, Hep3B, SKOV3, Caki-2, U-87MG, T24, OE33, OCI-AML5, Ramos, TGBC 14TKB, HT-1080, G-361)
T1 sequence (Q14444 1-709): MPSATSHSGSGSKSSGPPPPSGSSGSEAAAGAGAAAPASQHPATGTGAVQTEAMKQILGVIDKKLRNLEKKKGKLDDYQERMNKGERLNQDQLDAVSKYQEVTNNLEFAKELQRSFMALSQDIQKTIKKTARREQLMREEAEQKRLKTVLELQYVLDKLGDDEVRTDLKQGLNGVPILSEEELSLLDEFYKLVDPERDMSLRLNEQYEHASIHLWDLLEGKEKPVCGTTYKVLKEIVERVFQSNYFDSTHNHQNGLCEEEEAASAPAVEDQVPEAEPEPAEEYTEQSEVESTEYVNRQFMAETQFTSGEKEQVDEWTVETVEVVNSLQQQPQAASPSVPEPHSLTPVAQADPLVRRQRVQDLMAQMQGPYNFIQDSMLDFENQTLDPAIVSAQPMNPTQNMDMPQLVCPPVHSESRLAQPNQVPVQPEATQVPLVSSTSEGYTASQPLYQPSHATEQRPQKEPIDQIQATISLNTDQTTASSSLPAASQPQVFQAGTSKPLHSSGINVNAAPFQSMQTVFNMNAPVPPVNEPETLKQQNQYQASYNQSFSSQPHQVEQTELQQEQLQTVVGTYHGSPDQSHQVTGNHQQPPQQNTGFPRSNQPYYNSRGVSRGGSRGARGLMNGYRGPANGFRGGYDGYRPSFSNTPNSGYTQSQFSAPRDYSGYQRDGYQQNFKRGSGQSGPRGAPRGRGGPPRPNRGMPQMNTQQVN

T2: human CAPRIN-1 protein on cell membrane surfaces of human cancer cells (human, UniProt Q14444 2-709)
T2 construct: whole, on cells; Endogenous protein on cancer cells, stained without permeation of the cell membrane
T2 sequence (looked up): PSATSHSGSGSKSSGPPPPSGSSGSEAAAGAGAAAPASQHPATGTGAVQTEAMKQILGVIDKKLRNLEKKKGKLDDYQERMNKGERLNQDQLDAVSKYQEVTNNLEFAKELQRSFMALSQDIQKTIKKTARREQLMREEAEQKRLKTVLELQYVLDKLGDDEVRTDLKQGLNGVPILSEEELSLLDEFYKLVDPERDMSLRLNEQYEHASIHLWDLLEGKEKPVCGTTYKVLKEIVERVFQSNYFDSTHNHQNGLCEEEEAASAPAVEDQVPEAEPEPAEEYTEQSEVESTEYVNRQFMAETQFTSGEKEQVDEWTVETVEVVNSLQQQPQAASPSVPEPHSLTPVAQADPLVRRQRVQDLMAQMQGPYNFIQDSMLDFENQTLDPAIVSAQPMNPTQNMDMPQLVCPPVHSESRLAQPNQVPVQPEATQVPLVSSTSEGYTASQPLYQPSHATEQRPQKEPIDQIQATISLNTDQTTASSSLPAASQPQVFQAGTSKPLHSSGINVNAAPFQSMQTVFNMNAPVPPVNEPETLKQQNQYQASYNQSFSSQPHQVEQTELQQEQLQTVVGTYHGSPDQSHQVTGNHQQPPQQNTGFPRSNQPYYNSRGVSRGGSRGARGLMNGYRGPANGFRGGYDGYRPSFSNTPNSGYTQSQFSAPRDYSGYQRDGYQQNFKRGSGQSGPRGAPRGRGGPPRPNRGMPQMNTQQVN

B1: (ab): monoclonal antibody against CAPRIN-1 described in WO2013/125630, heavy-chain variable region SEQ ID NO: 114, light-chain variable region SEQ ID NO: 115 (antibody, listed as Mus musculus, V domains shown)
VH: GPELVKPGASVKMSCKASGYTFTSYVMHWVKQKPGQGLEWIGYINPYNDGTKYNEKFKGKATLTSDKSSSTAYMELSSLTSEDSAVYYCARRYYYGSSGGYFDVWAQDHVRT
VL: DVQITQSPSYLAASPGETITINCRASKSISKYLAWYQEKPGKTNKLLIYSGSTLQSGIPSRFSGSGSGTDFTLTISSLEPEDFAMYYCQQHNEYPYTFGGGTKLEIKR
B2: anti-CAPRIN-1 antibody (a) (antibody, V domains shown)
VH: AVTLDESGGGLQMSRGGLSLVCKASGFDFSSYQMNWIRQAPGKGLEFVAAINKFGNSTGHGAAVKGRVTISRDNGQSTVRLQLNNLRAEDTAIYFCTKHAYGYCGSGTWCAAGEIDAWGHGTEVIVSS
VL: QAASTQPSSVSANPGETVEITCSGGGSYSYGWFQQKSPGSAPVTVIYYNNKRPSDIPSRFSGSKSGSTGTLTITGVQADDEAVYYCGSGDSTDTAVFGAGTTLTVLG
B3: anti-CAPRIN-1 antibody (af) (antibody, V domains shown)
VH: EVQLVESGGGLVQPGGSLRLSCAASGFSLSSHSLGWVRQAPGKGLEWIGDIRSGGSAYYANWAKGRFTISRDNSKNTLYLQMNSLRAEDTAVYYCTRTNGPSDLTNRLDLWGQGTLVTVSS
VL: QVLTQSPSSLSASVGDRVTINCQASQSLYNNENLAWFQQKPGKVPKRLIYGASTLASGVSSRFSGSGSGTEFTLTISSLQCEDFAIYYCLGEFSCGSADCFAFGGGTKVEIK
B4: anti-CAPRIN-1 antibody (ag) (antibody, V domains shown)
VH: B3 VH with Y94F
VL: B3 VL
B5: anti-CAPRIN-1 antibody (b) (antibody, V domains shown)
VH: B3 VH with V2Q, Q3S
VL: B3 VL
B6: anti-CAPRIN-1 antibody (c) (antibody, V domains shown)
VH: AVTLDESGGGLQTPGGGLSLVCKASGFTFSSFDMGWVRQAPGKGLEFVAQINDAGSRTWYATAVKGRATISRDNGQTTVRLQLNNLRAEDTGTYYCTRGSGYVGAGAIDAWGHGTEVIVS
VL: AALTQPSSVSANPGETVKITCSGGSGYYGWYQQQKSPGSAPVTVIYQNDKRPSDIPSRFSGSGSGSTNTLTITGVQAEDEAVYFCGRYDSTDSGIFGAGTTLTVL
B7: anti-CAPRIN-1 antibody (d) (antibody, V domains shown)
VH: QSLEESGGDLVKPGASLTLTCTASGFSFSGSYYMSWVRQAPGKGLEWIAYIYIGDGVTAYANWAKGRFTISKASSTTVTLQMTSLTAADTATYFCARGNKLWGPGTLVTVSS
VL: DVVMTQTPASVEAAVGGTVTIKCQASQSISSYLAWYQQKPGQPPKRLIYDASNLDSGVPSRFKGSGSGTDFTITISDLECADAATYYCQCTAVSSATIYGNAFGGGTEVVVK
B8: anti-CAPRIN-1 antibody (e) (antibody, V domains shown)
VH: AVTLDESGGGLQTPGGALSLVCKASGFTFSGYDMLWVRQAPGKGLEWVAGIGSTGGGTDYGAAVKGRATISRDNGQSTVRLQLNNLRAEDTATYYCAKVAGGCNSGYCRDSPGSIDAWGHGTEVIVS
VL: AVTQQPASVSANPGETVKITCSGGGSRNYYGWYQQKSPGSVPVTVIYYDDQRPSNIPSRFSGALSGSTSTLTITGVQADDEAVYFCGSADSNTYEGSFGAGTTLTVL
B9: anti-CAPRIN-1 antibody (i) (antibody, V domains shown)
VH: GAELVRSGASVKMSCKASGYSFTDYNMYWVKQTPGQGLEWIGYIYPGNGGTNYNQKFKGKATLTADTSSSTAYMQISSLTSEDSAVYFCARDYDDGGYAMDYWGQGTTVTVSS
VL: DIQMTQSPASLSASVGETVTITCRASGNIHNYLTWYQQKQGKSPQLLVYNAKTLADGVPSRFSGSGSGTQYSLKINRLQPEDFGSYYCQHFWNIPWTFGGGTKLNSR
B10: anti-CAPRIN-1 antibody (j) (antibody, V domains shown)
VH: DAELVKPGASVKISCKASGYTFTDHSIHWVQQKPEQGLEWIGYISPGNGNIKYNEKFKGKATLTADKSSSTAYMQLNSLTSEDSAVYFCKRSLGRGGPYYFDYWGQGTTVTVSS
VL: DIVLTQAAPSLPVTPGESVSISCRSSKSLLHSNGNTYLYWFLQRPGQSPQLLIYRMSNLASGVPDRFSGSGSGTAFTLRISRVEAEDVGVYYCMQHREYPVTFGSGPN
B11: anti-CAPRIN-1 antibody (o) (antibody, V domains shown)
VH: EVQLHQFGAELVKPGASVKISCKASGYTFTDYNMDWVKQSHGKSLEWIGDINPNYDSTSYNQKFKGKATLTVDKSSSTAYMELRSLTSEDTAVYYCARSRSYDYEGFAYWGQGTLVTVSA
VL: DIQMTQSPASLSASVGETVTITCRASGNIHNYLAWYQQKQGKSPQLLVYNAKTLADGVPSRFSGSGSGTQYSLKINSLQPEDFGSYYCQHFWSTLTFGAGTKLELKR
B12: anti-CAPRIN-1 antibody (ah) (antibody, V domains shown)
VH: B3 VH
VL: EQVLTQSPSSLSASVGDRVTINCQASQSLYNNENLAWFQQKPGKVPKRLIYGASTLASGVSSRFSGSGSGTEFTLTISNLQPEDFAIYYCLGEFSCGSADCFAFGGGTKVEIK
B13: anti-CAPRIN-1 antibody (ai) (antibody, V domains shown)
VH: B3 VH with Y94F
VL: B12 VL with Q2I, I87T
B14: anti-CAPRIN-1 antibody (aj) (antibody, V domains shown)
VH: B3 VH
VL: B12 VL with Q2I, I87T
B15: anti-CAPRIN-1 antibody (ak) (antibody, V domains shown)
VH: B3 VH with Y94F
VL: B12 VL

System: Basal-like subtype of breast cancer (BLBC)
Experiment: not given
Details: added to docetaxel after epirubicin and cyclophosphamide (EC treatment); cited from earlier work

Molecule | effectiveness of administering carboplatin
N.N.O=C([O-])C1(C(=O)[O-])CCC1.[Pt+2] [carboplatin] | not effective

Molecular target: T1, CAPRIN-1 on cell membrane surfaces of human cancer cells
Experiment: Flow cytometry reactivity with cell membrane surfaces of human cancer cells expressing CAPRIN-1
Format: binding
Details: human cancer cells: BT-474, HT-29, QG56, H1650, NCI-N87, HEC-1-A, 22Rv1, Panc10.5, Hep3B, SKOV3, Caki-2, U-87MG, T24, OE33, OCI-AML5, Ramos, TGBC 14TKB, HT-1080, G-361
From the text: Reactivity of each monoclonal antibody with human cancer cells confirmed to express CAPRIN-1 protein on cell membrane surfaces was further confirmed by flow cytometry.
The reactivity of the anti-CAPRIN-1 antibody with cancer cells without permeation treatment of cell membranes was examined by flow cytometry to confirm that a portion of CAPRIN-1 was expressed on cell membrane surfaces of cancer cells as shown by Examples given below.

Molecule | reactivity with cell membrane surfaces of cancer cells (fluorescence intensity versus negative control antibody)
B1 | reacted strongly

Molecular target: T2, human CAPRIN-1 protein on cell membrane …
Experiment: flow cytometry on cancer cells expressing CAPRIN-1
Details: not given

Molecule | binding result
B2 | binds
B3 | binds
B4 | binds
B5 | binds
B6 | binds
B7 | binds
B8 | binds
B9 | binds
B10 | binds
B11 | binds
B12 | binds
B13 | binds
B14 | binds
B15 | binds
